Measurements: article doi:10.1101/2021.11.02.467024 (bioRxiv, 2021)

Biological target: the molecule itself
Assay: cross-linking

B1: IMPDH1 (enzyme)
chain: not shown
stoichiometry N: 4
